# Where “and” joins values, the source holds several entries; their conditions need not be identical. Identical values can stand only once.
# B1: equine angiotensin converting enzyme 2 (residues 19-615) (receptor)
# chain: STTEDLAKTFLEKFNSEAEELSHQSSLASWSYNTNITDENVQKMNEAGARWSAFYEEQCKLAKTYPLEEIQNLTVKRQLQALQQSGSSVLSADKSKRLNEILNTMSTIYSTGKVCNPSNPQECLLLEPGLDAIMENSKDYNQRLWAWEGWRSEVGKQLRPLYEEYVVLKNEMARANNYEDYGDYWRGDYEAEGPSGYDYSRDQLIEDVERTFAEIKPLYEHLHAYVRAKLMDTYPSHINPTGCLPAHLLGDMWGRFWTNLYSLTVPFGQKPNIDVTDAMVDQSWDAKRIFEEAEKFFVSVGLPNMTQGFWENSMLTEPGDGRKVVCHPTAWDLGKGDFRIKMCTKVTMDDFLTAHHEMGHIQYDMAYAVQPYLLRNGANEGFHEAVGEIMSLSAATPNHLKAIGLLPPDFYEDSETEINFLLKQALTIVGTLPFTYMLEKWRWMVFKGEIPKEEWMKKWWEMKREIVGVVEPVPHDETYCDPAALFHVANDYSFIRYYTRTIYQFQFQEALCQTAKHEGPLHKCDISNSTEAGQKLLQMLSLGKSEPWTLALERIVGVKNMDVRPLLNYFEPLFTWLKDQNKNSFVGWSTNWSPYAD
# Target: SARS-CoV-2 prototype receptor binding domain (residues 319-541) (SARS-CoV-2, UniProt P0DTC2 319-541)
# Test: SPR
binder,measurement,value
B1,Kd,87.7 nM and 200 nM
